According to patent US20170096495A1 (Hoffmann-La Roche, published 2017):
Numbering of substitutions follows the chain as printed. Read-outs that look alike come from different tables or passages of the source.

B1: STEAP-1 TCB Molecule F: "2+1 IgG CrossFab, inverted" with charge modifications (VH/VL exchange in CD3 binder, charge modification in STEAP-1 binders) (bispecific antibody)
heavy 1: EVQLVESGGGLVQPGGSLRLSCAVSGYSITSDYAWNWVRQAPGKGLEWVGYISNSGSTSYNPSLKSRFTISRDNSKNTLYLQMNSLRAEDTAVYYCARERNYDYDDYYYAMDYWGQGTLVTVSSASTKGPSVFPLAPSSKSTSGGTAALGCLVEDYFPEPVTVSWNSGALTSGVHTFPAVLQSSGLYSLSSVVTVPSSSLGTQTYICNVNHKPSNTKVDEKVEPKSCDKTHTCPPCPAPEAAGGPSVFLFPPKPKDTLMISRTPEVTCVVVDVSHEDPEVKFNWYVDGVEVHNAKTKPREEQYNSTYRVVSVLTVLHQDWLNGKEYKCKVSNKALGAPIEKTISKAKGQPREPQVCTLPPSRDELTKNQVSLSCAVKGFYPSDIAVEWESNGQPENNYKTTPPVLDSDGSFFLVSKLTVDKSRWQQGNVFSCSVMHEALHNHYTQKSLSLSP
heavy 2: not shown
light 1: DIQMTQSPSSLSASVGDRVTITCKSSQSLLYRSNQKNYLAWYQQKPGKAPKLLIYWASTRESGVPSRFSGSGSGTDFTLTISSLQPEDFATYYCQQYYNYPRTFGQGTKVEIKRTVAAPSVFIFPPSDRKLKSGTASVVCLLNNFYPREAKVQWKVDNALQSGNSQESVTEQDSKDSTYSLSSTLTLSKADYEKHKVYACEVTHQGLSSPVTKSFNRGEC
light 2: EVQLLESGGGLVQPGGSLRLSCAASGFTFSTYAMNWVRQAPGKGLEWVSRIRSKYNNYATYYADSVKGRFTISRDDSKNTLYLQMNSLRAEDTAVYYCVRHGNFGNSYVSWFAYWGQGTLVTVSSASVAAPSVFIFPPSDEQLKSGTASVVCLLNNFYPREAKVQWKVDNALQSGNSQESVTEQDSKDSTYSLSSTLTLSKADYEKHKVYACEVTHQGLSSPVTKSFNRGEC
B2: STEAP-1 TCB Molecule C: "2+1 IgG CrossFab, inverted" with charge modifications (CH1/CL exchange in CD3 binder, charge modification in STEAP-1 binders) (bispecific antibody)
light: B1 light 1
heavy: B1 heavy 1 with N74T
chain 1: not shown
chain 2: QAVVTQEPSLTVSPGGTVTLTCGSSTGAVTTSNYANWVQEKPGQAFRGLIGGTNKRAPGTPARFSGSLLGGKAALTLSGAQPEDEAEYYCALWYSNLWVFGGGTKLTVLSSASTKGPSVFPLAPSSKSTSGGTAALGCLVKDYFPEPVTVSWNSGALTSGVHTFPAVLQSSGLYSLSSVVTVPSSSLGTQTYICNVNHKPSNTKVDKKVEPKSC
B3: STEAP-1 TCB Molecule A: "2+1 IgG CrossFab, inverted" with charge modifications (VH/VL exchange in CD3 binder, charge modification in STEAP-1 binders) (bispecific antibody)
heavy 1: not shown
heavy 2: B1 heavy 1 with N74T
light 1: B1 light 1
light 2: B1 light 2
B4: STEAP-1 TCB Molecule E: "1+1 IgG CrossMab" with charge modifications (VH/VL exchange in CD3 binder, charge modification in STEAP-1 binder) (bispecific antibody)
heavy 1: B1 heavy 1 with N74T
heavy 2: not shown
light 1: B1 light 1
light 2: B1 light 2
B5: STEAP-1 TCB Molecule B: "2+1 IgG CrossFab, inverted" without charge modifications (VH/VL exchange in CD3 binder) (bispecific antibody)
light: B1 light 2
chain 1: B1 heavy 1 with N74T, E154K, E220K
chain 2: not shown
chain 3: not shown

Tests used:
[1] = target: T1, human STEAP-1 (Six-transmembrane epithelial antigen of prostate 1) (human, UniProt Q9UHE8 1-339); test: cell-based or functional assay
T1 sequence (Q9UHE8 whole entry): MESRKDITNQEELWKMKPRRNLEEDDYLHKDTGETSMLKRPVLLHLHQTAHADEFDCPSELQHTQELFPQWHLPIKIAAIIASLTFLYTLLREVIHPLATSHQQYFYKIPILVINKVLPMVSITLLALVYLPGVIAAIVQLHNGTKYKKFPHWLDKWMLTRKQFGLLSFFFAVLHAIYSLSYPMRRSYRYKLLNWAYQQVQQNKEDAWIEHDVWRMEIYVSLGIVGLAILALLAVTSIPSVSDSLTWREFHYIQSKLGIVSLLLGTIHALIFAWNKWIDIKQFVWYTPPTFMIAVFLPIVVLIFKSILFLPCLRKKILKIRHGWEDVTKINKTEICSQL

[2] = target: T1, human STEAP-1 (Six-transmembrane …); test: cell-based or functional assay; remark: listed apart in the source
[3] = target: T1, human STEAP-1 (Six-transmembrane …); test: cell-based or functional assay; remark: listed apart in the source
human CD3 [4] = target: T2, human CD3 (human, UniProt P07766 23-207); test: flow cytometry on Jurkat cells
T2 construct: In the assays CD3 stood as the native complex on Jurkat cells, Jurkat-NFAT reporter cells or primary human T cells; also called CD3 epsilon
T2 sequence (P07766 23-207 limits assumed): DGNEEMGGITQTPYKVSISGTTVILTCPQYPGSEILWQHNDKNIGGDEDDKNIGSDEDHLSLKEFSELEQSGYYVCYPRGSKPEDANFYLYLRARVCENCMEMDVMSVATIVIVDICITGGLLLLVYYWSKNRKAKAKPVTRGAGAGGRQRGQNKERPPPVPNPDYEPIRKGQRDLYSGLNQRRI

[5] = target: T1, human STEAP-1 (Six-transmembrane …); test: cell-based or functional assay; remark: listed apart in the source
[6] = target: T1, human STEAP-1 (Six-transmembrane …); test: flow cytometry on CHO-hSTEAP1 clone 2 cells, anti-human Fc secondary antibody
Procedure: The binding of STEAP-1 TCB molecules was tested, using STEAP-1-expressing CHO-hSTEAP1, clone 2 cells (an epithelial cell line derived from hamster ovary, that was transfected to stably overexpress human STEAP-1) and CD3-expressing immortalized T lymphocyte cells (Jurkat, DSMZ #ACC 282).
Briefly, adherent CHO-hSTEAP1 cells were harvested, using Cell Dissociation Buffer (Gibco, #13151014) counted, checked for viability and re-suspended at 2×10⁶ cells/ml in FACS buffer (100 μl PBS 0.1% BSA). Jurkat suspension cells were also harvested, counted and checked for viability. 100 μl of cell suspension (containing 0.2×10⁶ cells) were incubated in round-bottom 96-well plate for 30 min at 4° C. with increasing concentrations of the STEAP-1 TCB (31 pM-500 nM), washed twice with cold PBS containing 0.1% BSA (FACS buffer), re-incubated for further 30 min at 4° C. with the 1:50 pre-diluted FITC- or Alexa Fluor 647-conjugated AffiniPure F(ab′)2 Fragment goat-human IgG Fcg Fragment Specific secondary antibody (Jackson Immuno Research Lab, FITC #109-096-098, binding to Jurkats, or Jackson Immuno Research Lab, Alexa Fluor 647 #109-606-008, for binding to CHO-hSTEAP1, dilutions in FACS buffer) and washed twice with cold PBS 0.1% BSA. […] Staining was analyzed by FACS using a FACS Canto II (Software FACS Diva). […]

[7] = target: T1, human STEAP-1 (Six-transmembrane …); test: cell-based or functional assay; remark: listed apart in the source
[8] = target: T1, human STEAP-1 (Six-transmembrane …); test: cell-based or functional assay; remark: listed apart in the source
[9] = target: T1, human STEAP-1 (Six-transmembrane …); test: cell-based or functional assay; remark: listed apart in the source
human CD3 [10] = target: T2, human CD3; test: cell-based or functional assay

Binder	EC50 [pM] 24 h, T-cell mediated killing of LnCAP cells (LDH release, human PBMCs, E:T 10:1) [1]	EC50 [pM] 24 h, T-cell mediated killing of MKN45 cells (LDH release, human PBMCs, E:T 10:1) [1]	EC50 [pM] 24 h, T-cell mediated lysis of LnCaP cells (LDH release) [2]	EC50 [pM] 48 h, T-cell mediated lysis of LnCaP cells (LDH release) [2]	EC50 [nM], activation of Jurkat-NFAT reporter cells (luminescence after 6 h) with LnCaP cells [3]	binding result (human CD3 [4])	EC50 [nM], activation of Jurkat-NFAT reporter cells (luminescence after 6 h), presence of CHO-hSTEAP1 [5]	EC50 [6]	EC50 (pM), activation of primary T cells with LnCaP cells, 48 h: % CD4 + CD25+ [7]	EC50 (pM), activation of primary T cells with LnCaP cells, 48 h: % CD4 + CD69+ [7]	EC50 (pM), activation of primary T cells with LnCaP cells, 48 h: % CD8 + CD25+ [7]	EC50 (pM), activation of primary T cells with LnCaP cells, 48 h: % CD8 + CD69+ [7]	EC50 [nM], activation of Jurkat-NFAT reporter cells (luminescence after 6 h), presence of CHO-hSTEAP1 [8]	EC50 [nM], activation of Jurkat-NFAT reporter cells (luminescence after 6 h), presence of LnCaP cells [8]	EC50 [pM] 24 h, STEAP-1 TCB-mediated lysis of LnCaP cells (LDH release) [9]	EC50 [pM] 48 h, STEAP-1 TCB-mediated lysis of LnCaP cells (LDH release) [9]	EC50 [nM], activation of Jurkat-NFAT reporter cells (luminescence after 6 h), presence of STEAP-1-negative CHO-K1 (human CD3 [10])
B1	100 pM	1500 pM	–	–	–	–	–	–	–	–	–	–	–	–	–	–	–
B2	–	–	152 pM	12.8 pM	39.5 nM	–	–	–	–	–	–	–	–	–	–	–	–
B3	–	–	36.8 pM	31.4 pM	3.58 nM	binds	0.1 nM	20.2 nM	447 pM	300 pM	271 pM	124 pM	7.19 nM	1.36 nM	13.7 pM	6.35 pM	–
B4	–	–	–	–	–	–	0.79 nM	–	7960 pM	4310 pM	5060 pM	588 pM	0.51 nM	0.054 nM	1860 pM	1560 pM	18.8 nM
B5	–	–	95.7 pM	22.9 pM	5.73 nM	–	–	–	–	–	–	–	–	–	–	–	–
